Data from paper PMC3386157, “G Protein Activation without a GEF in the Plant Kingdom” (PLoS Genetics, 2012).

Columns and labels:
Experiment in all cases: SPR; BIAcore 2000; His-tagged AtRGS1 (284-459 aa) immobilised on sensor chip CM5 by amine coupling; AlF4-bound Gα flowed at 6.25-400 nM in running buffer with 20 mM NaF and 100 µM AlCl3; 25°C, 10 µl/min; 10 mM Hepes, 150 mM NaCl, 3 mM EDTA, 0.005% Tween-20, 100 µM GDP, 10 mM MgCl2; 1:1 Langmuir model
Settings in all cases: both partners purified
His-AtGPA1 = target: T1, His-AtGPA1 (Arabidopsis thaliana, UniProt P18064 1-383)
T1 construct: Arabidopsis thaliana heterotrimeric G protein alpha subunit AtGPA1; also called Arabidopsis thaliana Gα; wild type Arabidopsis Gα subunit; not shown: His6, N-terminal, kept
T1 sequence (looked up): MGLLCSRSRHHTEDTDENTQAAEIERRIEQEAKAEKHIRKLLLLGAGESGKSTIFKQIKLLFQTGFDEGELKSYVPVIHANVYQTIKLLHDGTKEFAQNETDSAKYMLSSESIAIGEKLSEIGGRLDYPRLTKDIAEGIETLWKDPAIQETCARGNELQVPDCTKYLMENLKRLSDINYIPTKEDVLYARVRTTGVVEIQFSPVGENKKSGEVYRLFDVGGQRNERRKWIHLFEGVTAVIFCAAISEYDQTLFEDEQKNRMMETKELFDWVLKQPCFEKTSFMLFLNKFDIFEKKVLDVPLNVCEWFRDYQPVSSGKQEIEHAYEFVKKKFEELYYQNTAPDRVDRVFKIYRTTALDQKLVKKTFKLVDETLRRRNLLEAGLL

AtGPA1-T194N = target: T2, AtGPA1-T194N (Arabidopsis thaliana, UniProt P18064 1-383, T194N)
T2 construct: Arabidopsis thaliana heterotrimeric G protein alpha subunit AtGPA1 with T194N (switch I); No tag cleavage is described; also called T194N mutant Arabidopsis Gα subunit
T2 sequence (looked up): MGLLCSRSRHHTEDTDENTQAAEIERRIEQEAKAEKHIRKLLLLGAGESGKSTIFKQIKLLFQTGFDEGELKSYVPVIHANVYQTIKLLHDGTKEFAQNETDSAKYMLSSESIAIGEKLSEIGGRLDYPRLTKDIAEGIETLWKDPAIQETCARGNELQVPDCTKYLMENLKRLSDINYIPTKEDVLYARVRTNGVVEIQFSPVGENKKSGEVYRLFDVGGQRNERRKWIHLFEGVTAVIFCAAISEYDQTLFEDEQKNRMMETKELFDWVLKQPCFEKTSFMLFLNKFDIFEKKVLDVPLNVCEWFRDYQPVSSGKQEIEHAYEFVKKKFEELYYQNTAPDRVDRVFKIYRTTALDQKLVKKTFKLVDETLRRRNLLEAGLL

OsRGA1 = target: T3, OsRGA1 (Oryza sativa, UniProt Q0DJ33 1-380)
T3 construct: Oryza sativa heterotrimeric G protein alpha subunit OsRGA1; cDNA synthesized with codon usage optimised for E. coli; No tag cleavage is described; also called rice Gα; wild type rice Gα subunit
T3 sequence (looked up): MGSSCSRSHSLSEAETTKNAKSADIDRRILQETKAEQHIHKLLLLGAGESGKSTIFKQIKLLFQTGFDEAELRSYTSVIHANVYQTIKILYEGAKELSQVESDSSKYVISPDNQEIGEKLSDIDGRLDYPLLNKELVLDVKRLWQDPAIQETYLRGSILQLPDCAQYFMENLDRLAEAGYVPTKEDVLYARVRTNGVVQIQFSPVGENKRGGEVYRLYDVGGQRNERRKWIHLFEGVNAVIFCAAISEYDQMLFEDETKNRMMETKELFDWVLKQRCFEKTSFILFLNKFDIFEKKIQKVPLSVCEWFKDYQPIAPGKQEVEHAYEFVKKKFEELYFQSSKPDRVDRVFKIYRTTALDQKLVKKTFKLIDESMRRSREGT

OsRGA1-N195T = target: T4, OsRGA1-N195T (Oryza sativa, UniProt Q0DJ33 1-380, N195T)
T4 construct: Oryza sativa heterotrimeric G protein alpha subunit OsRGA1 with N195T (switch I); printed as N191T in two paragraphs; also called OsRGA1-N191T; 195T mutant rice Gα subunit
T4 sequence (looked up): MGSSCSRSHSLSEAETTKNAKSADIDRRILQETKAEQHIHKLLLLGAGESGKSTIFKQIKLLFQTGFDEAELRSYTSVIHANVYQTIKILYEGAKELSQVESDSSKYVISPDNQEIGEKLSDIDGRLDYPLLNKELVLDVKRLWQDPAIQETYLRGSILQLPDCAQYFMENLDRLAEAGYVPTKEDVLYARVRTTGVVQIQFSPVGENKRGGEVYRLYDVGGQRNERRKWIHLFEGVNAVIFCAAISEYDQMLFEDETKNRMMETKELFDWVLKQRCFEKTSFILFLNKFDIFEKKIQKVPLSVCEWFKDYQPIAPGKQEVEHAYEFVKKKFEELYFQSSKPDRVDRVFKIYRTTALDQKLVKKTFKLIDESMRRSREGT

B1: Recombinant His-AtRGS1 (284–459 aa) (domain or fragment, Arabidopsis thaliana, UniProt Q8H1F2 284-459, looked up)
chain: KEEFRPVDPNEPLDKLLLNKRFRHSFMEFADSCYAGETLHFFEEVYEHGKIPEDDSIRRIYMARHIMEKFIVAGAEMELNLSHKTRQEILTTQDLTHTDLFKNALNEVMQLIKMNLVRDYWSSIYFIKFKEEESCHEAMHKEGYSFSSPRLSSVQGSDDPFYQEHMSKSSRCSSPG
notes: Arabidopsis thaliana Regulator of G protein Signaling 1 (AtRGS1), residues 284-459
Kd (His-AtGPA1): 0.0174 µM
koff (His-AtGPA1): 0.00616 s⁻¹
kon (His-AtGPA1): 353000 M⁻¹ s⁻¹
Kd (AtGPA1-T194N): 0.115 µM
koff (AtGPA1-T194N): 0.0134 s⁻¹
kon (AtGPA1-T194N): 117000 M⁻¹ s⁻¹
Kd (OsRGA1): 0.0567 µM
koff (OsRGA1): 0.0217 s⁻¹
kon (OsRGA1): 383000 M⁻¹ s⁻¹
Kd (OsRGA1-N195T): 0.00483 µM
koff (OsRGA1-N195T): 0.00584 s⁻¹
kon (OsRGA1-N195T): 1.21e+06 M⁻¹ s⁻¹
